Converted amounts (≈) assume the structure as drawn.
Columns and labels:
MRSA IDRL-6169 [1] = assay: MIC by broth microdilution; assay type: cell-based, Staphylococcus aureus; details: MRSA IDRL-6169, broth microdilution, CF-301 testing with 0.5 mM DL-dithiothreitol and 25% horse serum
MRSA IDRL-6169 biofilm = assay: Minimum biofilm inhibitory and bactericidal concentrations; assay type: cell-based, Staphylococcus aureus; details: CF-301 testing with 0.5 mM DL-dithiothreitol and 25% horse serum
MRSA IDRL-6169 [2] = assay: Acute MRSA osteomyelitis in rats, quantitative culture of tibia (Example 4); assay type: in vivo, Sprague Dawley rats; details: rat tibia, daptomycin 60 mg/kg i.p. every 12 hours for four days, CF-301 single dose 40 mg/kg tail vein; for mean (±SD) bacterial density: Day 12 (4 days after start of therapy); for reduction compared to untreated rats: Day 12
[3] = test system: methicillin-resistant Staphylococcus aureus IDRL-6169; assay: Rat osteomyelitis model, quantitative culture of tibia (Example 6); assay type: in vivo, Sprague Dawley rats; details: for Mean log10 CFU/g / Median log10 CFU/g: rat tibia bone; for Mean log10 CFU/g reduction: vs no treatment
Protocol: Agents Chemother. 2019 Sep. 23; 63(10). Specifically, osteomyelitis was established in the rats by bending the knee joint, inserting a 21G needle into the tibial process, and injecting 10 μl […] and 50 μl of about 10^6-10^8 colony forming units (cfu) suspension of methicillin-resistant Staphylococcus aureus IDRL-6169.
(§1) The following six treatment groups were identified: (1) control/no treatment (n=18); (2) 60 mg/kg daptomycin (DAP) administered subcutaneously twice daily for 4 days (n=17); (3) 40 mg/kg pp296 administered intravenously daily for 4 days (n=17); (4) 40 mg/kg pp296 administered intravenously daily for 4 days plus 60 mg/kg DAP administered subcutaneously twice daily for 4 days (n=17); (5) 100 mg/kg pp296 administered intravenously once as a single dose on treatment day 1 (n=17); and (6) 100 mg/kg pp296 administered intravenously once as a single dose on treatment day 1 plus 60 mg/kg DAP administered subcutaneously twice daily for 4 days (n=17). When daptomycin was administered together with pp296, it was given 15 minutes prior to pp296, which was maintained on ice.
Animals were sacrificed twelve hours after the last treatment was administered, and the tibia were collected, weighed, and cryopulverized for quantitative bacterial culture. The log10 CFU counts/g of tibia bone was determined using the Wilcoxon rank sum test, adjusted with a false discovery rate approach.

[4] = Body weight of rats in osteomyelitis model (Example 6); assay type: in vivo, Sprague Dawley rats; details: mean; for Body weight on Day 1: time of surgery (before treatment); for Body weight on Day 8: immediately prior to treatment; for Body weight on Day 12: time of sacrifice, without or with DAP 60 mg/kg
Protocol: as §1
Additionally, body weights of the animals were monitored as a marker of general health status during the study. The mean body weight of the animals at the time of surgery (day 1), immediately prior to treatment (day 8), and at the time of sacrifice (day 12) are shown below in Table 5.

[5] = test system: S. epidermidis clinical isolates; assay: MIC by broth microdilution (CLSI) in caMHB-HSF and caMHB-HSD; assay type: cell-based; details: S. epidermidis (N = 53)
From the text: More particularly MIC values for a lysin may be determined against e.g., S. epidermidis or S. aureus in e.g., Mueller-Hinton broth (MHB) supplemented with physiological salt concentrations and synovial fluid, such as human synovial fluid. Minimum Inhibitory Concentrations (MICs) of a lysin against e.g., S. epidermidis may be determined using broth microdilution (BMD) following Clinical and Laboratory Standards Institute (CLSI) methodology (M07-A11, 2018, which is herein incorporated by reference in its entirety) in a non-standard medium (caMHB supplemented to 50% with human synovial fluid (caMHB-HSF)). See Examples.
Minimum Inhibitory Concentrations (MICs) of the CF-301 lysin (SEQ ID NO: 1) against S. epidermidis were determined using broth microdilution (BMD) following CLSI methodology (M07-A11, 2018) in a non-standard medium (caMHB supplemented to 25% with horse serum and 0.5 mM with DTT (caMHB-HSD)) approved for use by the CLSI in antimicrobial susceptibility testing with CF-301 (CLSI, AST Subcommittee Meeting, January, 2018). Activity of CF-301 against S. epidermidis in HSF (Discovery Life Sciences) was similarly determined using BMD in caMHB with 50% HSF (caMHB-HSF). The caMHB-HSF supports the growth and biofilm formation of S. epidermidis as well as S. aureus.

[6] = test system: S. aureus (MRSA strains MW2, ATCC BAA-42); assay: as above; assay type: cell-based
[7] = test system: S. epidermidis isolate NRS6 biofilms; assay: Disruption of biofilms formed in human synovial fluid (fluorescent imaging); assay type: cell-based
Protocol: Macroscopic analysis of CF-301 activity on biofilms, which were formed in human synovial fluid, was performed in the manner described in Dastgheyb et al. (2015) JID 211:641-50 and Dastgheyb et al. (2015) AAC 59:e04579-14. Briefly, 10^8 CFUs of S. epidermidis isolate NRS6 were incubated for 24 hours at 37° C. in 24-well plates containing HSF. After biofilm formation, the wells were stained with ethidium bromide (EtBr) and treated with 0.1 or 1 μg/mL CF-301 for 2 hours. The biofilms were visualized by UV fluorescent imaging. Untreated controls were also examined.
The biofilms were also stained with Alexa Flour^488-WGA, which stained the exopolysaccharide in the biofilms (and individual bacteria) and propidium iodide (PI) which stained the entire biofilm. The biofilms were then visualized by fluorescence microscopy. As evidenced in FIG. 3, the S. epidermidis biofilms formed in HSF were eliminated after two hours of treatment with 0.1 ug/mL or 1 ug/mL CF-301.

[8] = after a single dose of 10 mg/kg
[9] = test system: multiple drug resistant (MDR) Staphylococcus epidermidis prosthetic knee infection; assay: CF-301 during arthroscopic DAIR in patients with prosthetic knee infection
[10] = Pathological slides, rat osteomyelitis model (Example 6); assay type: in vivo, Sprague Dawley rats; details: rats, pp296 line: 40 mg/kg daily dosing (Treatment Group 3)
From the text: These findings are consistent with acute osteomyelitis, and no appreciable differentiation between groups could be made.

[11] = DAP 60 mg/kg s.c. twice daily for 4 days
[12] = caMHB-HSD (25% horse serum, 0.5 mM DTT)
[13] = caMHB-HSF (50% human synovial fluid)
[14] = CF-301 into the joint during arthroscopic DAIR, daptomycin, linezolid then suppressive tedizolid
[15] = pp296 40 mg/kg i.v. daily for 4 days (combination: plus DAP 60 mg/kg s.c. twice daily for 4 days)
[16] = pp296 100 mg/kg i.v. single dose on treatment day 1 (combination: plus DAP 60 mg/kg s.c. twice daily for 4 days)
[17] = groups pp296 40 mg/kg, without or with DAP
[18] = groups pp296 100 mg/kg, without or with DAP

CCCCCCCCCC(=O)N[C@@H](Cc1c[nH]c2ccccc12)C(=O)N[C@H](CC(N)=O)C(=O)N[C@@H](CC(=O)O)C(=O)N[C@@H]1C(=O)NCC(=O)N[C@@H](CCCN)C(=O)N[C@@H](CC(=O)O)C(=O)N[C@H](C)C(=O)N[C@@H](CC(=O)O)C(=O)NCC(=O)N[C@H](CO)C(=O)N[C@@H]([C@H](C)CC(=O)O)C(=O)N[C@@H](CC(=O)c2ccccc2N)C(=O)O[C@@H]1C [daptomycin, reference compound]
MIC (MRSA IDRL-6169 [1]; Staphylococcus aureus, read-out: minimum inhibitory concentration): 0.5 µg/mL (≈ 0.309 µM) | Minimum biofilm inhibitory concentration (MRSA IDRL-6169 biofilm): 1 µg/mL | minimum biofilm bactericidal concentration (MRSA IDRL-6169 biofilm): 2 µg/mL | mean (±SD) bacterial density (MRSA IDRL-6169 [2]): 4.09 (±0.37) log10 cfu/gram of bone | reduction compared to untreated rats (MRSA IDRL-6169 [2]): 1.04 log10 cfu/gram of bone | Mean log10 CFU/g [3, 11]: 4.29 log10 CFU/g | Median log10 CFU/g [3, 11]: 4.79 log10 CFU/g | Mean log10 CFU/g reduction [3, 11]: −1.14 log10 CFU/g | Body weight on Day 1 ([4]; group DAP 60 mg/kg): 339 g

B1: CF-301: PlySs2 lysin of SEQ ID NO: 1, anti-staphylococcal lysin encoded within a prophage of the Streptococcus suis genome (protein, listed as Streptococcus suis)
chain: MTTVNEALNNVRAQVGSGVSVGNGECYALASWYERMISPDATVGLGAGVGWVSGAIGDTISAKNIGSSYNWQANGWTVSTSGPFKAGQIVTLGATPGNPYGHVVIVEAVDGDRLTILEQNYGGKRYPVRNYYSAASYRQQVVHYITPPGTVAQSAPNLAGSRSYRETGTMTVTVDALNVRRAPNTSGEIVAVYKRGESFDYDTVIIDVNGYVWVSYIGGSGKRNYVATGATKDGKRFGNAWGTFK
CF-301 MIC, MIC50 [5, 12]: 0.5 µg/mL | CF-301 MIC, MIC90 [5, 12]: 0.5 µg/mL | CF-301 MIC, Range [5, 12]: 0.25 to 2 µg/mL | CF-301 MIC, MIC50 [5, 13]: 0.015 µg/mL | CF-301 MIC, MIC90 [5, 13]: 0.125 µg/mL | CF-301 MIC, Range [5, 13]: 0.0078 to 2 µg/mL | CF-301 MIC ([6]; S. aureus strain ATCC BAA-42, caMHB-HSD): 0.5 µg/mL | CF-301 MIC ([6]; S. aureus strain ATCC BAA-42, caMHB-HSF): 0.03 µg/mL | CF-301 MIC ([6]; S. aureus strain MW2, caMHB-HSD): 0.5 µg/mL | CF-301 MIC ([6]; S. aureus strain MW2, caMHB-HSF): 0.03 µg/mL | ethidium bromide staining of biofilm structures formed by NRS6 in human synovial fluid ([7]; 0.1 or 1 μg/mL CF-301 for 2 hours, UV fluorescent imaging, FIG. 2): eliminated | S. epidermidis biofilms formed in HSF, Alexa Fluor 488-WGA / propidium iodide fluorescence microscopy ([7]; two hours of treatment with 0.1 ug/mL or 1 ug/mL CF-301, FIG. 3): eliminated | minimum inhibitory concentration (MRSA IDRL-6169 [1]): 0.5 µg/mL | Minimum biofilm inhibitory concentration (MRSA IDRL-6169 biofilm): 1 µg/mL | minimum biofilm bactericidal concentration (MRSA IDRL-6169 biofilm): 4 µg/mL | mean (±SD) bacterial density (MRSA IDRL-6169 [2]): 4.65 (±0.65) log10 cfu/gram of bone | reduction compared to untreated rats (MRSA IDRL-6169 [2]): 0.65 log10 cfu/gram of bone | Levels of CF-301 in bone relative to plasma levels [8]: 10-15% | outcome after 1 year follow up in the two septic arthritis patients [9, 14]: favorable | outcome at 6 months in the two patients with fistula at baseline [9, 14]: recurrence of the fistula | adverse events during arthroscopy ([9]; four patients, CF-301 (75 mg/mL; 30 mL) into the joint during arthroscopy, followed by antibiotics): No adverse events

B2: pp296: modified PlySs2 lysin, SEQ ID NO: 6; L92W, V104S, V128T and Y137S, Y164K, N184D, S198Q (protein)
chain: MTTVNEALNNVRAQVGSGVSVGNGECYALASWYERMISPDATVGLGAGVGWVSGAIGDTISAKNIGSSYNWQANGWTVSTSGPFKAGQIVTWGATPGNPYGHVSIVEAVDGDRLTILEQNYGGKRYPTRNYYSAASSRQQVVHYITPPGTVAQSAPNLAGSRSKRETGTMTVTVDALNVRRAPDTSGEIVAVYKRGEQFDYDTVIIDVNGYVWVSYIGGSGKRNYVATGATKDGKRFGNAWGTFK
Mean log10 CFU/g [3, 15]: 4.94 log10 CFU/g | Median log10 CFU/g [3, 15]: 5.27 log10 CFU/g | Mean log10 CFU/g [3, 16]: 4.81 log10 CFU/g | Median log10 CFU/g [3, 16]: 4.99 log10 CFU/g | Mean log10 CFU/g reduction [3, 15]: −0.49 log10 CFU/g | Mean log10 CFU/g reduction [3, 16]: −0.61 log10 CFU/g | Body weight on Day 8 [4, 17]: 313 g | Body weight on Day 8 [4, 18]: 312 g | Body weight on Day 12 ([4]; pp296 40 mg/kg i.v. daily for 4 days): 311 g | Body weight on Day 12 ([4]; pp296 100 mg/kg i.v. single dose): 312 g | Body weight on Day 1 [4, 17]: 342 g | Body weight on Day 1 [4, 18]: 344 g | Pathological slides (marrow cellularity) [10]: only possible hypercellularity

From patent publication US20220193186A1, “METHOD OF TREATING AND PREVENTING BONE AND JOINT INFECTIONS” (CONTRAFECT CORPORATION, priority 2019, published 2022)
